Measurements from PMC11381810.

Tests used:
[1] = molecular target: SNAP25a (1–206) M49C, endogenous cysteines replaced by serine (Rattus norvegicus) (UniProt P60881); assay: FRET or BRET + SEC; equimolar stopped-flow titration at 37 °C (kobs^2 hyperbolic) and size-exclusion chromatography of the 1:1 mix after overnight incubation at 4 °C (excess of free SNAP25)
[2] = molecular target: SNAP25a (1–206) M49C, endogenous cysteines replaced by serine (Rattus norvegicus) (UniProt P60881); assay: FRET or BRET; stopped-flow; Alexa Fluor 488 (donor) and Alexa Fluor 647 (acceptor) on syntaxin and SNAP25; one partner fixed at 0.125 μM and the other titrated, or equimolar; 37 °C; 20 mM Hepes, 150 mM KCl, 0.1 mM TCEP, pH ~7.4
[3] = molecular target: syntaxin-1A (1–265) S225C, endogenous cysteines replaced by serine (Rattus norvegicus) (UniProt P32851); assay: as above
[4] = molecular target: 2:1 syntaxin:SNAP25 complex (premixed syntaxin-1A (1–265) S225C and SNAP25a (1–206) M49C) (Rattus norvegicus) (UniProt P32851); assay: FRET or BRET; stopped-flow; donor-labelled syntaxin and acceptor-labelled SNAP25 at 1:1, unlabeled synaptobrevin titrated in excess; syntaxin and SNAP25 premixed, or SNAP25 and synaptobrevin added together to syntaxin; 37 °C

## syntaxin-1A (1–265) S225C, endogenous cysteines replaced by serine (from UniProt P32851 1-265) (domain or fragment)
[1]
  stoichiometry N (syntaxin per SNAP25): 2
[2]
  intercept of kobs over [syntaxin]0: 0.0032

## SNAP25a (1–206) M49C, endogenous cysteines replaced by serine (from UniProt P60881-2 1-206) (natural protein)
[3]
  intercept of kobs over [SNAP25]0: 0.019

## synaptobrevin 2 (1–96) S61C (from UniProt P63045 1-96) (domain or fragment)
[4]
  rate constant of the irreversible step (first, exponential phase): 7520 M⁻¹ s⁻¹
